Results taken from the DeepSol protein solubility set.

Assay: soluble on expression in E. coli; label from the status in PepcDB or PDB records

Sequence | soluble on expression in E. coli
NTQLNIKMQPDTQTLDEVVVIGYGTVKKRDLTGAVASVKSEDIVRMPTSNVLEAIQGQVAGLDITRSSGEAGSGVNMTLRGTRSINGDNSPLFIIDGMEGSYDELNPNDIASIEVLKDASSTAVYGAAGANGVIIITTKTPKKDK | not soluble
MYNKDDVLKQADNIANKIKNLDTIKTYQQIEAQIHQNQTIKTKMDMLKKHQKQAVNFQNYGKQNALEQSEHTIQSIEAEINTLPIVEQFQTSQYEANQLLKMFVSTMETRLNDHNKAKHSDLEHHHHHH | not soluble
MEKNTIILGIETSCDETAVAVVKNGTEIIANVVASQIESHKRFGGVVPEIASRHHVEEITVVLEEALKEANITFDDIDAIAVTEGPGLVGALLIGVNAAKAVAFAHDIPLVGVHHIAGHIYANRLVKEVQFPLLSLVVSGGHTELVYMKEHGSFEVIGETRDDAAGEAYDKVARTLSMPYPGGPHIDRLAHEGKPTIDLPRAWLEPDSYDFSFSGLKSAVINTVHNAKQRGIEIAPEDLAASFQESVIDVLVTKASRAADAYNVKQVLLAGGVAANKGLRARLETEFAQKENVELIIPPLSLCTDNAAMIAAAGTIAYEQGKRATLALNANPGLDIEA | not soluble
MLPLPWWMLGVGPEEEADESSDYDMVDGHSIEVQESVPTTPVSVFHTPSQSSIIDISDQLVDLPTFLKVAKRRSSTVLETATPAKTPKIQLSERRRKFQRNDTEVMIKTGEPVVDCDETLGLNWLFDTDYPRDAGSGDLLNSTFRIDHRNHGEGTSQITESPKNRDFPLFFSSFDDTTVLFNTTIAGDIDVNERNQASGDWIFRKDKSPTNDPIENDQETDEKTKSELGDGGEIVFKEPVQSTKKTRGRKRGTSVRIEKLSTSRRTSAKKKEEKQKETETFDADKNENPSTPTAPPTMTRRHTPSRKAKTNRTFRL | not soluble
AGQQQPLPVPPLLESRRGQPLFMTVQRAHWSFTPGTRASVWGINGRYLGPTIRVWKGDDVKLIYSNRLTENVSMTVAGLQVPGPLMGGPARMMSPNADWAPVLPIRQNAATLWYHANTPNRTAQQVYNGLAGMWLVEDEVSKSLPIPNHYGVDDFPVIIQDKRLDNFGTPEYNEPGSGGFVGDTLLVNGVQSPYVEVSRGWVRLRLLNASNSRRYQLQMNDGRPLHVISGDQGFLPAPVSVKQLSLAPGERREILVDMSNGDEVSITCGEAASIVDRIRGFFEPSSILVSTLVLTLRPTGLLPLVTDSLPMRLLPTEIMAGSPIRSRDISLGDDPGINGQLWDVNRIDVTAQQGTWERWTVRADEPQAFHIEGVMFQIRNVNGAMPFPEDRGWKDTVWVDGQVELLVYFGQPSWAHFPFYFNSQTLEMADRGSIGQLLVNPVPRSHHHHHH | soluble
MSLESMLSHPPIPIADMAEHTERLKANDSLKLSQEYESIDPGQQFTWEHSNLEVNKPKNRYANVIAYDHSRVILQPIEGIMGSDYINANYVDGYRRQNAYIATQGPLPETFGDFWRMVWEQRSATIVMMTRLEEKSRIKCDQYWPNRGTETYGFIQVTLLDTIELATFCVRTFSLHKNGSSEKREVRQFQFTAWPDHGVPEYPTPFLAFLRRVKTCNPPDAGPIVVHCSAGVGRTGCFIVIDAMLERIKPEKTVDVYGHVTLMRSQRNYMVQTEDQYSFIHEALLEAVGCGNTEVPARSLYAYIQKLAQVEPGEHVTGMELEFKRLANSKAHTSRFISANLPCNKFKNRLVNIMPYESTRVCLQPIRGVEGSDYINASFIDGYRQQKAYIATQGPLAETTEDFWRMLWENNSTIVVMLTKLREMGREKCHQYWPAERSARYQYFVVDPMAEYNMPQYILREFKVTDARDGQSRTVRQFQFTDWPEQGVPKSGEGFIDFIGQVHKTKEQFGQDGPISVHCSAGVGRTGVFITLSIVLERMRYEGVVDIFQTVKMLRTQRPAMVQTEDEYQFCYQAALEYLGSFDHYATEGHHHHHH | soluble
MSKHKVSPATIAKNKKALHDYTILEKFEAGIVLQGWEVKSIRAGKVQMVDSHVHIKHGEAWLFNCLITPLLSASTHVVADAAATRKLLLNRREINKIMGRIEQKGFTCIPLSMYWKGPRVKVEIALAQGKKVHDKRQAQKDKDWAREKDRLFKKAYK | not soluble
SPMAVEEVIEMQGLSLDPTSHRVMAGEEPLEMGPTEFKLLHFFMTHPERVYSREQLLNHVWGTNVYVEDRTVDVHIRRLRKALEPGGHDRMVQTVRGTGYRFSTRF | soluble
MAHHHHHHSLENKGTNLTPEQALDRLEELYEQSVNALREAIADYVDNGTLPDPHARLNGLFVYPSLSVSWDGATPNPPKTRAFGRFTHPGCYTTTVTRPALFRAYLLEQLNLVYHDYGAHIAVEASHHEIPYPYVIDGSALTLDRSMSAGLTRHFPTTELAQIGDETADGLFHPGEFYPLSHFDARRVDFSLARLRHYTGTPVEHFQPFVLFTNYTRYVDEFVRWGCSQILDPDSPYIALSCAGGIWITAETEAPEEAISDLAWKKHQMPAWHLVTADGQGITLVNIGVGPSNAKTICDHLAVLRPDVWLMIGHCGGLRESQAIGDYVLAHAYLRDDHVLDAVLPPDIPIPSIAEVQRALYDATKAVSGMPGEEVKQRLRTGTVVTTDDRNWELRYSASALRFNLSRAVAIDMESATIAAQGYRFRVPYGTLLCVSDKPLHGEIKLPGQANRFYEGAISEHLQIGIRAIDLLRAEGDRLHSRKEG | soluble
MAHHHHHHMEEQVDLEKALAVAIKAAQSAGNIMLEFYQLRREDTAAKMMRLLKEGGSHTTGELAASPKPTPVDLLDIKTKSSSTDLVTHYDKLCDETIMKILQRFNAKVEDEKRNEPSEAFSFQFITEELTPDTPLTDEPTWIVDPIDGTMSFVHGGCDCCISIGLAIKKQTVLAVVYCPFLSIVQHSVEDLRSTSAVAGELYTAIRGKGTFLNGQPIRVSADALPNTALVAFNYPMGARLSAAEIPSDSAQVGVLKRQKHRKVVEAAGHIREQLAMHPVQGIRSYGSCALILAQVAAGRIDLYMEPAGMVWDVCAGSLLITEAGGVVKNMWGGDFGLEGTTTIIAAANETLADYGIQLCTQVNYGDYWKK | soluble
MSSQVSTSRGLPSPSKLGTFESPHTWQMSGPTGQAEAGSSDDQDIRLLSVSWNQDFGCFAAGTSNGFRIFNCDPFKETFRRDLKSGGFGIVEMLFRCNILALVGGGSNAHYPPNKVMIWDDHRSHCIGEFAFRSDVRAVKLGKDYIVIVLERKIYVYNFTDLKLLHQIETQSNPKGLCCLSHHSNTSVLACPGVHQGHVRVEHFGLKVTRMISAHDSHISCMALTMDGLLLATASMKGTLIRIFNTMDGTRLQEVRRGLDKADIYSIALSPNVQWLAVSSDKGTVHIFSLRVRVAGEDASNEQRSLEGPRMDHQNSSSSIDPLIQTNTGSNASSSLSFMKGILPKYFSSEWSFAQFHLPEVTRYIVAFGAQNTVMMVGLDGSFYRCSFDQVNGGQMLQKEYFRFIKADLTPLRTSAP | not soluble
MGSDKIHHHHHHMFDDADDIDTETVEEWEASAEFGLLYTSGNTETESLKGKFTASRDVQNWRHKGVFDYYTSEQKDQDTGEMNETADRIFISAQSNYKFDPDSRDSLFVFGSYEEDEFSGFAYQATVATGYGARYRYDEDIYADYEIGPGYSRTKPVQVEGEPPVESDGSMILRLAGSLNWKISENSRFSALLSSEVGEDNTKSKAELSVSANINSALAMKVSLGANHNSHVADESIEKLDTETAVTLVYSF | not soluble
MSLKVATFIEPGKMVITDTPKPVIEQETDAVIKIVRACVCGSDLWWYRGISKRESGSFAGHEAIGIVEEVGTKVTDVSKGDFVIVPFTHGCGQCPSCKAGFDGNCTNHQAAKNVGYQGQYLRYTNANWALVKIPGQPSDYDNETLNSLLTLSDVMATGYHAAATAEVKEGDTVVVMGDGAVGLCGVIAAKMLGANRIIAMSRHKDRQELALTFGATDIVEERGDEAVKRVLDLTNQAGADAVLECVGTEQSVDTATQIARPGAVIGRVGIPQNPDMNTNNLFWKNIGLRGGIASVTTFDKSVLLDAVLTHKINPGLVFTKSFVLDDIQKAYEAMDKRDAIKSLVIVDEGHHHHHH | soluble
MGSDKIHHHHHHMSGPQGRLAIIAGSGMLPVYVAEAARAAGEDPFILPLKNEADQRWDGFQSAVIGVGDMAGLSSLIKRHGIKRVVMSGGVKKRPNFKEIHVNLRFLVKLPFAVKTLLSGGDDAVLKMVIQLIESQGCRVVGAHEIAPQLLAELGPLGSSRPTDDDRRDIAAAAKAADALGRLDVGQGAVSVGGRIVALEGVEGTDRMLQRVAELRSEGRISSRRSGVLVKLCKPQQDIRADLPTIGQSTIENAARAGLSGIAVQAGRALLLQRQETLRQADAAGIFISGIELAPEGEAWLS | not soluble
MKRSEKKSMSSALKNGIMERTQPEKVVQMQGTADLSTSKLGTKKYWDELYALELENFRRNPQDTGDCWFSDSDAEQKMIDFLVDNIGAYRISENASVVDLGTGNGHMLFELHQTEFQGKLVGIDYSEESVKLASNIAEATGVDNFISFQQADIFSGDWKPGKYDIVLDKGTLDAISLSGMKINGKLDVVDVYAGVVERILKKDGIFLITSCNFTQDELVKIIETDNLKMWKTIKYPVFQFGGVQGATICSVAFVKQN | soluble
SLGEVPSPQELIEVADAAPNAASGVLKLYRAYREQAQRLSDLSDLLAREGHETALSSTRLPIDEVRHVFENRPAYFHAIDAAAEELHKQLSTGDDLASGLRAWLQKNHGIVVRTLPVHAMPNLRRRYDRHSMRLFLSERLSQPDQLREMAMETCLLALREEIGTELEALGLKGEEARRIARFELARYAAHALMMPYGAFLAAAQRAKYDLDVLRSRFNVSFEQAANRLVSLQRPTTAAIPFFLMEIDNAGNRFRLAGAGGFPRARFGGLCPRLNIHAAFAQPGQVLVESVEMPDGDAFLTVSRTLEGPQAGFGERVRRTAVLLGCDLGQAGETVYGPAASGAAPVAIGPSCRLCERQGCLSRAEAPLTRPLGLDEMVTGLSVFDFQ | soluble
MAHHHHHHMKPSSISGEAPPLAVVGGNCSVFGFDRFGAERYWTVTGDQVTAMALMPWTSVSDSGSAPLSLLVASDDFEVRVYDGEEAIATVHEVDRVQKLVPLWQPSRNLDTETAAADSAGRYAYLLENGTVGMYERGERVWRVRGKSVPVSAAFCDVDGDGVAELVIGWSNGRVEVRTDRGGGLEKGGSVLFRDTYSSAVAAVLSEDYRQDGVPLPVICTVDGTVRGLTLLETRKDEAAEVRQLQVLEALVQEKQQLAAQLTSLEEQLARRAAGAQDTTMPESGVEVRCCCSANLATKHVEVHVEVTGPAAKRGDIVVHSCLLQCEIWATAAEQDTIAFANAEPSTTLVCSFAHADDLPLNVSASVAVGPAFGDSYRIHEVTVRVPRFVMYQLPYTIPPEQQRQRQGKTVTYQQPDGCVLLQWRELLRLDVIERWLRHSFCVPEDVALLDANAPTDPVLHLELIHVRDGSSFGIEVRNAAASGAAFNTITLWSDHLAPCGAVIDAFVEDLKGGWADGRADPVAVRCEMPLELERLRAIFARVDEFNEVRMKLTTDMADAATVVKTLLGRAEDARLLGDMASMKKSYAVLYDVDQELLCENAKRINNYEELKLALKEVNTCIQQAGMVRIGPARAQLIASCRNALKENQVNSLLEIIRTGSE | not soluble
MAHHHHHHMRGTPLREGHHSPTQSVRRFFSDYQHVQEEKVNLPRLKLRGLPFDASEEEIKTFFKNFQLAKVGYPIHIIRGVKNKPTGQAHVYFDDEEEARKACETLNRKFLRNRYIEIYTDYIFNHNLTLVKEHVTTLMRDRYRKDNQ | not soluble
GSHMVTIVRIYLDGVYGIGKSTTGRVMASAASGGSPTLYFPEPMAYWRTLFETDVISGIYDTQNRKQQGNLAVDDAALITAHYQSRFTTPYLILHDHTCTLFGGNSLQRGTQPDLTLVFDRHPVASTVCFPAARYLLGDMSMCALMAMVATLPREPQGGNIVVTTLNVEEHIRRLRTRARIGEQIDITLIATLRNVYFMLVNTCHFLRSGRVWRDGWGELPTSCGAYKHRATQMDAFQERVSPELGDTLFALFKTQELLDDRGVILEVHAWALDALMLKLRNLNVFSADLSGTPRQCAAVVESLLPLMSSTLSDFDSASALERAARTFNAEMGV | soluble
